Experimental data published in PMC6116569, “Activity of Vsr endonucleases encoded by Neisseria gonorrhoeae FA1090 is influenced by MutL and MutS proteins” (BMC Microbiology, 2018).

What was measured:
[1] = test system: MutS (Neisseria gonorrhoeae FA1090); assay: EMSA; settings: 0.75 uM protein, 1 mM ATP, 10 mM Ca2+, 10 mM Tris-HCl pH 7.5, 10 mM CaCl2, 0.1 mg/ml BSA, 0.15 uM substrate DNA, 0.032 uM competitor DNA, 20 ul, temperature not stated, 5% PAGE with …
[2] = biological target: V.NgoAXIII endonuclease, two-hybrid fusion (ngoAXIIIV gene in pC22, plasmid pAK24) (N. gonorrhoeae FA1090); assay: two-hybrid; bacterial two-hybrid system (Di Lallo et al.) in E. coli R721 with lacZ as reporter: fusions to the N-terminal domains of the phage P22 and 434 repressors; an interaction represses β-galactosidase; LB with 0.1 mM IPTG, 37 °C; read-out is the ratio of Miller Units to the plasmid-less strain, a ratio below 0.5 counts as interaction
[3] = biological target: V.NgoAXIV endonuclease, two-hybrid fusion (ngoAXIVV gene in pC22, plasmid pAK25) (N. gonorrhoeae FA1090); assay: as above
[4] = biological target: T1, MutS protein of N. gonorrhoeae FA1090, His-tagged, purified (plasmid pAK21) (N. gonorrhoeae FA1090, UniProt Q5F5J4 1-864); assay: pull-down; protein affinity chromatography: 250 μg V.NgoAXIII, V.NgoAXIV or MutLNgo coupled to Affi-Gel 10; 250 μg His-tagged MutLNgo or MutS applied in 25 mM Tris pH 7.5, 50 mM NaCl with 2 mM ATP and 5 mM MgCl2; washed with the same buffer, eluted with 250 mM NaCl; fractions blotted with an anti-His-Tag antibody; settings: both partners purified
T1 construct: MutS of Neisseria gonorrhoeae FA1090; mutS gene (2595 bp) amplified from chromosomal DNA with primers MutSNheI/MutSNgoR and cloned into the NheI-HindIII sites of pET28a(+); The His-Tag at the amino terminus is encoded by the vector; also called gonococcal MutS protein; source: E. coli BL21(DE3)pLys (pAK21), autoinduction, purified (Ni-NTA Agarose); not shown: His-Tag, N-terminal, kept
T1 sequence (looked up): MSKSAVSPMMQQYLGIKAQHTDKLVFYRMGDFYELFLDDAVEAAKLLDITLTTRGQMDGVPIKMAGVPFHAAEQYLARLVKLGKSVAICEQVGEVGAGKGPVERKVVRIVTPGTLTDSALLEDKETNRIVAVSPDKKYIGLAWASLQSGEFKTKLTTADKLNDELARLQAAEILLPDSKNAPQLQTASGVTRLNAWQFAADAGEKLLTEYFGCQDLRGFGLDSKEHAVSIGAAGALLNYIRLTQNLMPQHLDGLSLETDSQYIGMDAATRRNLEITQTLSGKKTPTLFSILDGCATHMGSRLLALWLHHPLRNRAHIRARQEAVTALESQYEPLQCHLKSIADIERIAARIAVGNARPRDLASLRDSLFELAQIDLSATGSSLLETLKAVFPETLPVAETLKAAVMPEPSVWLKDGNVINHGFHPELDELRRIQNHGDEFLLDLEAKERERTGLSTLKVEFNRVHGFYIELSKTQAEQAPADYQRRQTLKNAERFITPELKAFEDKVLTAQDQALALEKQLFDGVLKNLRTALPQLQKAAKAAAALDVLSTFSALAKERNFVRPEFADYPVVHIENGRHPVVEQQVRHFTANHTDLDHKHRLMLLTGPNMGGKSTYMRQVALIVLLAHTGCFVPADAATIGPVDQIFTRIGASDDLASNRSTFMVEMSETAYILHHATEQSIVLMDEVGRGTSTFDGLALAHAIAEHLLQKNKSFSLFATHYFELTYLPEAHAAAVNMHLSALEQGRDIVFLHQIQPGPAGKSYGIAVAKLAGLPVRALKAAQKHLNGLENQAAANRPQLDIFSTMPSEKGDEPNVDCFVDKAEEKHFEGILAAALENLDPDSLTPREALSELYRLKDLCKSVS

[5] = biological target: T2, MutL protein of N. gonorrhoeae FA1090, two-hybrid fusion (mutLNgo gene in pC434, plasmid pAK26) (N. gonorrhoeae FA1090, UniProt Q5F8M6 1-658); assay: two-hybrid; bacterial two-hybrid system (Di Lallo et al.) in E. coli R721 with lacZ as reporter: fusions to the N-terminal domains of the phage P22 and 434 repressors; an interaction represses β-galactosidase; LB with 0.1 mM IPTG, 37 °C; read-out is the ratio of Miller Units to the plasmid-less strain, a ratio below 0.5 counts as interaction; settings: partners not purified
T2 construct: MutL of Neisseria gonorrhoeae FA1090; mutLNgo gene (1977 bp) amplified from chromosomal DNA and cloned into the SalI-BamHI sites of pC434; also called gonococcal MutL protein; source: bacterial two-hybrid fusion, expressed in E. coli R721; not shown: N-terminal domain of the repressor of phage 434 (from the vector pC434), N-terminal, kept
T2 sequence (looked up): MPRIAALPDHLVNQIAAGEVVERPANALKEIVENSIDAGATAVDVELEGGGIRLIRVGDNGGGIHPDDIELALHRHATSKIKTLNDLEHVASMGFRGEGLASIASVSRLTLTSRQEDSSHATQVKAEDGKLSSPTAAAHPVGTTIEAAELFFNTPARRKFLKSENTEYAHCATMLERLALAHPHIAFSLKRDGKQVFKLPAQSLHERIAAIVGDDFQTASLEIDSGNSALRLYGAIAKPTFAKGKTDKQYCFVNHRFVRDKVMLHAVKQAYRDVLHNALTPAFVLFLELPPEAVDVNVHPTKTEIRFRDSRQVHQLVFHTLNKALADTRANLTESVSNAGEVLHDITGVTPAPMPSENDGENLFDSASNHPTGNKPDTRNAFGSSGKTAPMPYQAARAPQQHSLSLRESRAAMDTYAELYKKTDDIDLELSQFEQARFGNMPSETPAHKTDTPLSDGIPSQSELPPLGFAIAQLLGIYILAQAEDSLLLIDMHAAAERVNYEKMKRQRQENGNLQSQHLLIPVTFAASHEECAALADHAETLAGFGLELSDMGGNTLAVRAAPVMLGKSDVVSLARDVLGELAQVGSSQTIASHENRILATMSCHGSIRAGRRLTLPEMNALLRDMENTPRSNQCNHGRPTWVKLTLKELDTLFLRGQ

T:G mismatch substrate used with MutS (M.NgoA302P-sub or M.NgoA1175P-sub, not specified)
binding signal [1]: 90 % bound

B1: MutL protein of N. gonorrhoeae FA1090, two-hybrid fusion (mutLNgo gene in pC434, plasmid pAK26) (natural protein)
chain: MPRIAALPDHLVNQIAAGEVVERPANALKEIVENSIDAGATAVDVELEGGGIRLIRVGDNGGGIHPDDIELALHRHATSKIKTLNDLEHVASMGFRGEGLASIASVSRLTLTSRQEDSSHATQVKAEDGKLSSPTAAAHPVGTTIEAAELFFNTPARRKFLKSENTEYAHCATMLERLALAHPHIAFSLKRDGKQVFKLPAQSLHERIAAIVGDDFQTASLEIDSGNSALRLYGAIAKPTFAKGKTDKQYCFVNHRFVRDKVMLHAVKQAYRDVLHNALTPAFVLFLELPPEAVDVNVHPTKTEIRFRDSRQVHQLVFHTLNKALADTRANLTESVSNAGEVLHDITGVTPAPMPSENDGENLFDSASNHPTGNKPDTRNAFGSSGKTAPMPYQAARAPQQHSLSLRESRAAMDTYAELYKKTDDIDLELSQFEQARFGNMPSETPAHKTDTPLSDGIPSQSELPPLGFAIAQLLGIYILAQAEDSLLLIDMHAAAERVNYEKMKRQRQENGNLQSQHLLIPVTFAASHEECAALADHAETLAGFGLELSDMGGNTLAVRAAPVMLGKSDVVSLARDVLGELAQVGSSQTIASHENRILATMSCHGSIRAGRRLTLPEMNALLRDMENTPRSNQCNHGRPTWVKLTLKELDTLFLRGQ
ratio of Miller Units (β-galactosidase activity) to the plasmid-less strain [2]: 0.18 | ratio of Miller Units (β-galactosidase activity) to the plasmid-less strain [3]: 0.23

B2: MutL protein of N. gonorrhoeae FA1090, His-tagged, purified (plasmid pAK20) (natural protein, UniProt Q5F8M6 1-658, looked up)
chain: MPRIAALPDHLVNQIAAGEVVERPANALKEIVENSIDAGATAVDVELEGGGIRLIRVGDNGGGIHPDDIELALHRHATSKIKTLNDLEHVASMGFRGEGLASIASVSRLTLTSRQEDSSHATQVKAEDGKLSSPTAAAHPVGTTIEAAELFFNTPARRKFLKSENTEYAHCATMLERLALAHPHIAFSLKRDGKQVFKLPAQSLHERIAAIVGDDFQTASLEIDSGNSALRLYGAIAKPTFAKGKTDKQYCFVNHRFVRDKVMLHAVKQAYRDVLHNALTPAFVLFLELPPEAVDVNVHPTKTEIRFRDSRQVHQLVFHTLNKALADTRANLTESVSNAGEVLHDITGVTPAPMPSENDGENLFDSASNHPTGNKPDTRNAFGSSGKTAPMPYQAARAPQQHSLSLRESRAAMDTYAELYKKTDDIDLELSQFEQARFGNMPSETPAHKTDTPLSDGIPSQSELPPLGFAIAQLLGIYILAQAEDSLLLIDMHAAAERVNYEKMKRQRQENGNLQSQHLLIPVTFAASHEECAALADHAETLAGFGLELSDMGGNTLAVRAAPVMLGKSDVVSLARDVLGELAQVGSSQTIASHENRILATMSCHGSIRAGRRLTLPEMNALLRDMENTPRSNQCNHGRPTWVKLTLKELDTLFLRGQ
notes: MutL of Neisseria gonorrhoeae FA1090; mutLNgo gene (1977 bp) amplified from chromosomal DNA with primers MutLfor/MutLNgoR and cloned into the NheI-HindIII sites of pET28a(+); The His-Tag at the amino terminus is encoded by the vector; also called MutLNgo; gonococcal MutL protein; source: E. coli BL21(DE3)pLys (pAK20), autoinduction, purified (Ni-NTA Agarose); not shown: His-Tag, N-terminal, kept
binding result [4]: binds

B3: MutS protein of N. gonorrhoeae FA1090, two-hybrid fusion used with the MutLNgo fusion (plasmid pAK27) (natural protein, UniProt Q5F5J4 1-864, looked up)
chain: MSKSAVSPMMQQYLGIKAQHTDKLVFYRMGDFYELFLDDAVEAAKLLDITLTTRGQMDGVPIKMAGVPFHAAEQYLARLVKLGKSVAICEQVGEVGAGKGPVERKVVRIVTPGTLTDSALLEDKETNRIVAVSPDKKYIGLAWASLQSGEFKTKLTTADKLNDELARLQAAEILLPDSKNAPQLQTASGVTRLNAWQFAADAGEKLLTEYFGCQDLRGFGLDSKEHAVSIGAAGALLNYIRLTQNLMPQHLDGLSLETDSQYIGMDAATRRNLEITQTLSGKKTPTLFSILDGCATHMGSRLLALWLHHPLRNRAHIRARQEAVTALESQYEPLQCHLKSIADIERIAARIAVGNARPRDLASLRDSLFELAQIDLSATGSSLLETLKAVFPETLPVAETLKAAVMPEPSVWLKDGNVINHGFHPELDELRRIQNHGDEFLLDLEAKERERTGLSTLKVEFNRVHGFYIELSKTQAEQAPADYQRRQTLKNAERFITPELKAFEDKVLTAQDQALALEKQLFDGVLKNLRTALPQLQKAAKAAAALDVLSTFSALAKERNFVRPEFADYPVVHIENGRHPVVEQQVRHFTANHTDLDHKHRLMLLTGPNMGGKSTYMRQVALIVLLAHTGCFVPADAATIGPVDQIFTRIGASDDLASNRSTFMVEMSETAYILHHATEQSIVLMDEVGRGTSTFDGLALAHAIAEHLLQKNKSFSLFATHYFELTYLPEAHAAAVNMHLSALEQGRDIVFLHQIQPGPAGKSYGIAVAKLAGLPVRALKAAQKHLNGLENQAAANRPQLDIFSTMPSEKGDEPNVDCFVDKAEEKHFEGILAAALENLDPDSLTPREALSELYRLKDLCKSVS
notes: MutS of Neisseria gonorrhoeae FA1090; mutS gene (2595 bp) amplified from chromosomal DNA and cloned into the SalI-BamHI sites of pC434 and pC22; That pAK27 is the pC22 derivative is inferred: it was paired with the pC434-borne mutLNgo gene; also called gonococcal MutS protein; source: bacterial two-hybrid fusion, expressed in E. coli R721; not shown: N-terminal domain of the repressor of phage …
ratio of Miller Units (β-galactosidase activity) to the plasmid-less strain [5]: 0.39 ± 0.01
